From article PMC9728394, “Molecular Docking and Kinetic Studies of the A226N Mutant of Deinococcus geothermalis Amylosucrase with Enhanced Transglucosylation Activity” (Journal of Microbiology and Biotechnology, 2020) come the findings set out here.

In data set [1] the test system is Cc1cc(=O)oc2cc(O)ccc12. The data set is described as follows: HPLC of 4-methylumbelliferone glucoside, initial velocities, Lineweaver-Burk fit. It is filed as biochemical, Deinococcus geothermalis. The settings on record: acceptor, 0.1-1.0 mM, 200 mM sucrose as donor, 50 mM Tris-HCl pH 8.0, 45°C. The text has this:
(§1) HPLC of 4-methylumbelliferone glucoside, initial velocities, Lineweaver-Burk fit on DgAS (WT DgAS)

Data set [2] relates to OC[C@H]1O[C@@](CO)(O[C@H]2O[C@H](CO)[C@@H](O)[C@H](O)[C@H]2O)[C@@H](O)[C@@H]1O. The data set is described as above. The data set is classed as biochemical, Deinococcus geothermalis. The settings on record: donor, 0.4-200 mM, 1 mM 4-methylumbelliferone as acceptor, 50 mM Tris-HCl pH 8.0, 45°C.
Text: as §1

As to “DgAS (WT DgAS) (Deinococcus geothermalis DSM 11300; A226N)”, in data set [1], the Km is reported as 2.718 ± 0.655 mM, the turnover number (kcat) is 0.28778 s⁻¹ and the kcat/Km is 106 M⁻¹ s⁻¹. In data set [2], the Km is reported as 44.570 ± 4.625 mM, the kcat is 0.1139 s⁻¹ and the kcat/Km was determined as 2.55 M⁻¹ s⁻¹.
With “DgAS (WT DgAS) (Deinococcus geothermalis DSM 11300)”, in data set [2], the Km worked out at 36.174 ± 2.037 mM, the kcat worked out at 0.1096 s⁻¹ and the kcat/Km was 3.03 M⁻¹ s⁻¹.
